From US20210355220A1 (TIKCRO TECHNOLOGIES, published 2021)
Changes are numbered by the printed parent chain.

B1: Ab55h-PM1 (antibody, V domains shown)
VH: QVQLQESGPGLVKPSETLSLTCAVSGYSISGDYYWNWIRQPPGKGLEWIGSIYHSGYTYYNPSLKSRVTISVDTSKNQFSLKLSSVTAADTAVYYCARDSGWYVIAFDYWGQGTLVTVSS
VL: EIVMTQSPATLSVSPGERATLSCRASQSVSSNLAWYQEKPGQAPRLLIYGASTRATGIPARFSGSGSGTEFTLTISSLQSEDFAVYYCQQYNNWPPLTFGGGTKVEIK
B2: Ab55h-PM6 (antibody, V domains shown)
VH: B1 VH with N36G, Y109I
VL: B1 VL
B3: Ab55h-PM16 (antibody, V domains shown)
VH: B1 VH with N36G
VL: B1 VL with N92A
B4: Ab55h-PM17 (antibody, V domains shown)
VH: B1 VH with N36G
VL: B1 VL with N93V
B5: Ab55h-PM23 (antibody, V domains shown)
VH: B1 VH with N36G
VL: B1 VL with L97F
B6: Ab55h-PM12 (antibody, V domains shown)
VH: B1 VH with N36G, F107Y
VL: B1 VL
B7: Ab55h-PM13 (antibody, V domains shown)
VH: B1 VH with N36G, S100V
VL: B1 VL
B8: Ab55h-PM19 (antibody, V domains shown)
VH: B1 VH with N36G
VL: B1 VL with S30G
B9: Ab55h-PM21 (antibody, V domains shown)
VH: B1 VH with N36G
VL: B1 VL with W94S
B10: Ab55h-PM20 (antibody, V domains shown)
VH: B1 VH with N36G
VL: B1 VL with S30Y
B11: Ab55h-PM8 (antibody, V domains shown)
VH: B1 VH with N36G
VL: B1 VL with G50A
B12: Ab55h-PM14 (antibody, V domains shown)
VH: B1 VH with N36G, W102F
VL: B1 VL
B13: Ab55h-PM24 (antibody, V domains shown)
VH: B1 VH with N36G, S100V, Y109I
VL: B1 VL
B14: Ab55h-PM3 (antibody, V domains shown)
VH: B1 VH with N36G, G56A
VL: B1 VL
B15: Ab55h-PM28 (antibody, V domains shown)
VH: B1 VH with N36G, A106G, F107Y
VL: B1 VL
B16: Ab55h-PM27 (antibody, V domains shown)
VH: B1 VH with N36G, W102F, Y109I
VL: B1 VL
B17: Ab55h-PM15 (antibody, V domains shown)
VH: B1 VH with N36G, W102A
VL: B1 VL
B18: Ab55h-PM4 (antibody, V domains shown)
VH: B1 VH with N36G, L64V
VL: B1 VL
B19: Ab55h-PM7 (antibody, V domains shown)
VH: B1 VH with N36G
VL: B1 VL with V29I
B20: Ab55h-PM22 (antibody, V domains shown)
VH: B1 VH with N36G
VL: B1 VL with L97I
B21: Ab55h-PM10 (antibody, V domains shown)
VH: B1 VH with N36G
VL: B1 VL with T53S
B22: Ab55h-PM2 (antibody, V domains shown)
VH: B1 VH with N36G, S55D
VL: B1 VL
B23: Ab55h-PM11 (antibody, V domains shown)
VH: B1 VH with N36G, A106G
VL: B1 VL
B24: Ab55h-PM26 (antibody, V domains shown)
VH: B1 VH with N36G, S100V, W102F, Y109I
VL: B1 VL
B25: Ab55h-PM5 (antibody, V domains shown)
VH: B1 VH with N36G, D108A
VL: B1 VL
B26: Ab55h-PM25 (antibody, V domains shown)
VH: B1 VH with N36G, S100V, W102F
VL: B1 VL
B27: Ab55h-PM18 (antibody, V domains shown)
VH: B1 VH with G31S, N36G
VL: B1 VL
B28: Ab55h-PM9 (antibody, V domains shown)
VH: B1 VH with N36G
VL: B1 VL with S52T
B29: Ab47h (antibody, V domains shown)
VH: QVQLVESGGGVVQPGRSLRLSCAASGFTFSNYGIHWVRQAPGKGLEWVAAIWYDGNNKYYADSVKDRFTISRDNSKNTLYLQMNSLRVEDTAVYYCARNGVLGAFDIWGQGTMVTVSS
VL: DIQMTQSPSSLSASVGDRVTITCRASQGISNYLAWYQQKPGKVPKLLIYAASTLQSGVPSRFSGSGSGTDFTLTISSLQPEDVATYYCQKYNSSPWTFGQGTKVEIK
B30: Ab55h-PM-R6 (antibody, V domains shown)
VH: B1 VH with N36G
VL: B1 VL with N93S
B31: Ab55h-PM-R5 (antibody, V domains shown)
VH: B1 VH with N36G
VL: B1 VL with N92G
B32: Ab55h-PM-R9 (antibody, V domains shown)
VH: B1 VH with N36G, Y103S
VL: B1 VL

Target: T1, human CTLA-4 expressed on cells (human, UniProt P16410 36-223)
T1 construct: whole, on cells; On stably or transiently transfected HEK293 cells; also called hCTLA-4; HEK293-hCTLA-4 cells
Test: flow cytometry on HEK293-hCTLA-4 cells
Protocol: To test the binding of antibodies to CTLA-4 under more physiological conditions, the binding of CTLA-4 antibodies to cell-surface CTLA-4 was tested. […] The surface expression of hCTLA-4 in the obtained cell line was tested using a commercial anti-CTLA-4 antibody and compared to the parent cell line (HEK293 without transfection). […] The anti-CTLA-4 antibodies were incubated in serial dilution concentrations with the HEK293-hCTLA-4 cells for 1 hour on ice. Following a wash step, an anti-human antibody conjugated to ALEXA FLUOR® 647® was added for an additional hour. The cells were washed, and propidium iodide (PI) was added to exclude dead cells. The fluorescent signal was measured using FACS and analyzed. Dead cells were removed based on the PI signal. The population was gated based on forward and side scatter (FSC and SSC) parameters, and doublets were removed. The Median Fluorescent Intensity (MFI) of the appropriate channel was calculated for the live single cells from each group. The MFI was plotted versus antibody concentration in Prism software (V6.01) and kinetic parameters were obtained using a curve fit dose response function with four parameters. […] The lower EC₅₀ values indicate increased binding affinity to cell surface hCTLA-4.

T1 sequence (P16410 36-223): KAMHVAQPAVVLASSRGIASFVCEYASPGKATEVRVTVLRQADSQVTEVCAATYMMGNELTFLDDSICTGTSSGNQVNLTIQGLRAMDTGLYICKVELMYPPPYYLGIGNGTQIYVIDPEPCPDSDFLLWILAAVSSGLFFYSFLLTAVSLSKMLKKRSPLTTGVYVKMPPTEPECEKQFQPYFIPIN

Row | EC50 | Binder
1 | 0.27 nM | B1
2 | 0.15 nM | B2
3 | 0.27 nM | B3
4 | 0.31 nM | B4
5 | 0.22 nM | B5
6 | 0.24 nM | B6
7 | 0.22 nM | B7
8 | 0.12 nM | B8
9 | 0.22 nM | B9
10 | 0.19 nM | B10
11 | 0.16 nM | B11
12 | 0.32 nM | B12
13 | 0.2 nM | B13
14 | 0.42 nM | B14
15 | 0.31 nM | B15
16 | 0.2 nM | B16
17 | 0.32 nM | B17
18 | 0.39 nM | B18
19 | 0.18 nM | B19
20 | 0.09 nM | B20
21 | 0.24 nM | B21
22 | 0.52 nM | B22
23 | 0.21 nM | B23
24 | 0.35 nM | B24
25 | 0.24 nM | B25
26 | 0.34 nM | B26
27 | 0.21 nM | B27
28 | 0.26 nM | B28

Target: T2, Recombinant human CTLA-4-his (Sino Biologicals, 11159-H08H) (human, UniProt P16410 36-162)
T2 construct: Bought protein; also called dimer hCTLA-4; not shown: his tag
Test: SPR (Biacore T100), antibody captured on anti-human chip, CTLA-4-his in solution
Protocol: Recombinant human CTLA-4-his (Sino Biologicals, 11159-H08H) was added in a serial 2-fold dilution, starting at a concentration of 500nM. […] The measurement was corrected using the baseline channel and the protein-antibody interaction was measured by the change in surface resonance and quantified with Biacore T100 control software (version 2.0.4).

T2 sequence (P16410 36-162 limits assumed): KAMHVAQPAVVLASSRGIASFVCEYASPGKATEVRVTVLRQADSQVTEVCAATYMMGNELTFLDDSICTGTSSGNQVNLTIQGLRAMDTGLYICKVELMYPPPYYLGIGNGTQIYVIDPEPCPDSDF

Row | Kd | Binder
29 | 10 nM | B29

Target: T1, human CTLA-4 expressed on cells
Test: flow cytometry on HEK293 cells overexpressing human CTLA-4, serial dilution, MFI
Protocol: HEK293 cells were prepared as described above. […] Binding was measured using FACS.

Row | binding result | EC50 (read off the curve) | Binder
30 | binds |  | B30
31 |  | ~0.2 nM | B31
32 | binds |  | B32
